Legend:
[1] = biological target: T1, extracellular domain of human CD73 protein, C-terminus polyhistidine-tagged (human, UniProt P21589 27-547); experiment: ForteBio Octet (the filing calls it SPR), by the method of Example 2 according to the text; sheet prints 'Loading Sample ID: FDYKSD-02-His'; traces labelled 25, 12.5, 6.25, 3.13
T1 construct: also the immunogen; also called CD73-ECD; human CD73-ECD
T1 sequence: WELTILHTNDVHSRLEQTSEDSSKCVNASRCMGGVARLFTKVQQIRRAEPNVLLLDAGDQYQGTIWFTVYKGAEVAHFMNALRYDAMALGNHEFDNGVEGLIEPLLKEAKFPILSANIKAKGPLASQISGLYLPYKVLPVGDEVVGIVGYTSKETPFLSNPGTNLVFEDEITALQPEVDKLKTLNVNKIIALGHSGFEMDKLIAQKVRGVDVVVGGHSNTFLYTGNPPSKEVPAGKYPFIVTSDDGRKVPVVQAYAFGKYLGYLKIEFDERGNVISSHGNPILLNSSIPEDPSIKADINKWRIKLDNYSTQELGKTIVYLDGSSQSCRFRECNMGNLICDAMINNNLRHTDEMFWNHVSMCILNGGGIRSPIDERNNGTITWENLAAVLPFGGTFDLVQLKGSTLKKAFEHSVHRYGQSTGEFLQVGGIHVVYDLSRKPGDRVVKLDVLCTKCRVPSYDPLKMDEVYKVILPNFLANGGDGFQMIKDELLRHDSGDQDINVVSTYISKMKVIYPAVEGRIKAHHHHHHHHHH

[2] = biological target: T1, extracellular domain of human CD73 …; experiment: SPR as the filing names it (method of Example 2, ForteBio OCTET R2)
Experimental: Surface plasmon resonance (SPR) assay: Protein A sensor was used to immobilize the antibodies, with an immobilization height of about 1.5 nM. […] Affinity detection: equilibrium for 60 s, binding for 180 s, dissociation for 180 s, at a detection temperature of 25° C. Kinetic characterization analysis was performed using the ForteBio OCTET R2 system.
The affinity of the humanized antibody to the antigen was detected by the surface plasmon resonance (SPR) assay method in Example 2.

koff [1]: 0.000588 s⁻¹
kon [1]: 1.25e+06 M⁻¹ s⁻¹
Kd [2]: 0.472 nM
B1: chimeric nanobody 3-D7 (Fc fusion)
VHH: QRQLVESGGGLVQPGGSLRLSCAASGFLLDYYVIGWFRQAPGKEREGVSCISGSDRSTYYADSVKGRFTISRDNAKNTVYLQMNSLKPEDTAVYFCAADPSPVTVQAMCLPRFPVPYWGQGTQVTVST
notes: Human-alpaca chimeric antibody (VHH on hIgG1 Fc); Only the VHH is tied to the tested molecule; 37-39 exist for 3-D7-FC1/FC2/FC3; also called original antibody 3-D7
